Source: patent US20150183883A1 (Genentech, published 2015)

T1: endothelin B receptor (ETBR) on the surface of UACC-257X2.2 melanoma cells (human, UniProt P24530 27-442)
T1 construct: Endogenous ETBR on UACC-257X2.2 melanoma cells (parental and resistant lines); also called EDNRB; EDNBR
T1 sequence: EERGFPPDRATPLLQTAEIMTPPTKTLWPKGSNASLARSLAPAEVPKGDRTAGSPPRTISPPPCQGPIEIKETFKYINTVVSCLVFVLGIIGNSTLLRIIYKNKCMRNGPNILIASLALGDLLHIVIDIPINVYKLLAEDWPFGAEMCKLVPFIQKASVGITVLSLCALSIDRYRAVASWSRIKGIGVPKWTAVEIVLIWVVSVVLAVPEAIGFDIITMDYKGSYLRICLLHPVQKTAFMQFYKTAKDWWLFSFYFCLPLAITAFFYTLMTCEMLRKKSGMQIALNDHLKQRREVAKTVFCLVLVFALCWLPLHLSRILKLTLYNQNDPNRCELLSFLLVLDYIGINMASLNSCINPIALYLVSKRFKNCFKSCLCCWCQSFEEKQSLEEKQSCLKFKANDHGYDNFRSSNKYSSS

B1: ch5E9 (antibody, human IgG1, kappa, V domains shown)
VH: QVQLLQSGAELARPGASVKLSCKASGYTFTSYWMQWVKQRPGQGLEWIGTIYPGDGDTSYAQKFKGKATLTTDKYSSTAYMQLSSLASEDSAVYYCARWGYAYDIDNWGQGTLVTVSS
VL: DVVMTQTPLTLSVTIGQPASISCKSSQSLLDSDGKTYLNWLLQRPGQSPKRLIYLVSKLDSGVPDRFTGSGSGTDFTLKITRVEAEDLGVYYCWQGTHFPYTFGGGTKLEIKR
notes: Naked antibody used as FACS staining reagent and detected with an anti-human Alexa 488 conjugate; also called anti-ETBR antibody; chimeric 5E9
B2: hu5E9.v1 (antibody, human IgG1, kappa, V domains shown)
VH: EVQLVESGGGLVQPGGSLRLSCAASGYTFTSYWMQWVRQAPGKGLEWIGTIYPGDGDTSYAQKFKGRATLSTDKSKNTAYLQMNSLRAEDTAVYYCARWGYAYDIDNWGQGTLVTVSS
VL: DIQMTQSPSSLSASVGDRVTITCKSSQSLLDSDGKTYLNWLQQKPGKAPKRLIYLVSKLDSGVPSRFSGSGSGTDFTLTISSLQPEDFATYYCWQGTHFPYTFGQGTKVEIKR
notes: Naked antibody used as FACS staining reagent and detected with an anti-human Alexa 488 conjugate; also called anti-ETBR antibody; humanized 5E9 version 1

Target: T1, endothelin B receptor (ETBR) on the …
Assay: flow cytometry (FACS) on parental and resistant UACC-257X2.2 cells
Experimental: Expression of ETBR on the surface of the in vivo- and in vitro-derived resistant UACC-257X2.2 cells and the parental UACC-257X2.2 cells was then determined by FACS.

Row | Binder | binding result
1 | B1 | binds
2 | B2 | binds
